Test results from paper PMC9297526.

Target: human alpha-thrombin (human, UniProt P00734;P00734 328-363;364-622)
Experiment: ITC

GGTTGGTGTGGTTGG (structured_DNA) [TBA]
Ka: 8.46e+06 M⁻¹
